According to the RNAGym collection of RNA variant scans (doi:10.7554/elife.80360):

B1: CPEB3 Ribozyme (parent)
chain: GGGGGCCACAGCAGAAGCGUUCACGUCGCGGCCCCUGUCAGAUUCUGGUGAAUCUGCGAAUUCUGCUGU

Variants of: B1
Experiment: self-cleavage, relative activity (ratio to wild type); higher = more cleavage; co-transcriptional

Variant	self-cleavage
GGGGGCCACAGCAGAAGCGAUCACGUCGCGGCCCCUGUCAGAUUCUGGUGAAUCUGCGAAUUAUGCUGU [U20A C63A]	0.129
GGGGGCCACAGCAGAAGCGAUCACGUCGCGGCCCCUGUCAGAUUCUGGUGAAUCUGCGAAUUGUGCUGU [U20A C63G]	0.13
GGGGGCCACAGCAGAAGCGAUCACGUCGCGGCCCCUGUCAGAUUUUGGUGAAUCUGCGAAUUCUGCUGU [U20A C45U]	0.144
GGGGGCCACAGCAGAAGCGAUCACGUCGCGGUCCCUGUCAGAUUCUGGUGAAUCUGCGAAUUCUGCUGU [U20A C32U]	0.148
GGGGGCCACAGCAGAAGCGAUCACGUCGCGGACCCUGUCAGAUUCUGGUGAAUCUGCGAAUUCUGCUGU [U20A C32A]	0.153
GGGGGCCACAGCAGAAGCGAUCACGUCGCGGGCCCUGUCAGAUUCUGGUGAAUCUGCGAAUUCUGCUGU [U20A C32G]	0.171
GGGGGCCACAGCAGAAGCGAUCACGUCGCGGCCCCUGUAAGAUUCUGGUGAAUCUGCGAAUUCUGCUGU [U20A C39A]	0.169
GGGGGCCACAGCAGAAGCGAUCACGUCGCGGCCCCUGUUAGAUUCUGGUGAAUCUGCGAAUUCUGCUGU [U20A C39U]	0.125
GGGGGCCACAGCAGAAGCGAUCACGUCGCGGCCCCUGUCAGAUUCUGGUGAAUCUGGGAAUUCUGCUGU [U20A C57G]	0.092
GGGGGCCACAGCAGAAGCGAUCACGUCGCGGCCCCUGUCAGAUUCUGGUGAAUCUGAGAAUUCUGCUGU [U20A C57A]	0.195
GGGGGCCACAGCAGAAGCGAUCACGUCGCGGCCCCUGUCAGAUUCUGGUGAAUCUGUGAAUUCUGCUGU [U20A C57U]	0.152
GGGGGCCACAGCAGAAGCGAUCACGUCGCGGCCCCUGUCAGAUUCUGGUGUAUCUGCGAAUUCUGCUGU [U20A A51U]	0.153
GGGGGCCACAGCAGAAGCGAUCACGUCGCGGCCCCUGUCAGAUUCUGGUGCAUCUGCGAAUUCUGCUGU [U20A A51C]	0.151
GGGGGCCACAGCAGAAGCGAUCACGUCGCGGCCCCUGUCAGAUUCUGGUGGAUCUGCGAAUUCUGCUGU [U20A A51G]	0.186
GGGGGCCACAGCAGAAGCGAUCACGUCGCGGCCCCUGUCAGAUUCUGGUGAAUCUGCGAAUUCUGAUGU [U20A C66A]	0.154
GGGGGCCACAGCAGAAGCGAUCACGUCGCGGCCCCUGUCAGAUUCUGGUGAAUGUGCGAAUUCUGCUGU [U20A C54G]	0.194
GGGGGCCACAGCAGAAGCGAUCACGUCGCGGCCCCUGUCAGAUUCUGGUGAAUUUGCGAAUUCUGCUGU [U20A C54U]	0.124
GGGGGCCACAGCAGAAGCGAUCAAGUCGCGGCCCCUGUCAGAUUCUGGUGAAUCUGCGAAUUCUGCUGU [U20A C24A]	0.203
GGGGGCCACAGCAGAAGCGAUCAUGUCGCGGCCCCUGUCAGAUUCUGGUGAAUCUGCGAAUUCUGCUGU [U20A C24U]	0.0896
GGGGGCCACAGCAGAAGCGAUCACGUCGCGGCCCCUGUCAGAUUCUGGUGAAUCUGCGCAUUCUGCUGU [U20A A59C]	0.0876

Variant	self-cleavage
GGGGGCCACAGCAGAAGCGAUCACGUCGCGGCCCCUGUCAGAUUCUGGUGAAUCUGCGGAUUCUGCUGU [U20A A59G]	0.125
GGGGGCCACAGCAGAAGCGAUCACGUCGCGGCCCGUGUCAGAUUCUGGUGAAUCUGCGAAUUCUGCUGU [U20A C35G]	0.183
GGGGGCCACAGCAGAAGCGAUCACGUCGCGGCCCAUGUCAGAUUCUGGUGAAUCUGCGAAUUCUGCUGU [U20A C35A]	0.115
GGGGGCCACAGCAGAAGCGAUUACGUCGCGGCCCCUGUCAGAUUCUGGUGAAUCUGCGAAUUCUGCUGU [U20A C22U]	0.176
GGGGGCCACAGCAGAAGCGAUGACGUCGCGGCCCCUGUCAGAUUCUGGUGAAUCUGCGAAUUCUGCUGU [U20A C22G]	0.119
GGGGGCCACAGCAGAAGCGAUAACGUCGCGGCCCCUGUCAGAUUCUGGUGAAUCUGCGAAUUCUGCUGU [U20A C22A]	0.152
GGGGGCCACAGCAGAAGCGAUCACGUUGCGGCCCCUGUCAGAUUCUGGUGAAUCUGCGAAUUCUGCUGU [U20A C27U]	0.149
GGGGGCCACAGCAGAAGCGAUCACGUGGCGGCCCCUGUCAGAUUCUGGUGAAUCUGCGAAUUCUGCUGU [U20A C27G]	0.152
GGGGGCCACAGCAGAAGCGAUCACGUCGUGGCCCCUGUCAGAUUCUGGUGAAUCUGCGAAUUCUGCUGU [U20A C29U]	0.155
GGGGGCCACAGCAGAAGCGAUCACGUCGAGGCCCCUGUCAGAUUCUGGUGAAUCUGCGAAUUCUGCUGU [U20A C29A]	0.194
GGGGGCCACAGCAGAAGCGAUCACGUCGGGGCCCCUGUCAGAUUCUGGUGAAUCUGCGAAUUCUGCUGU [U20A C29G]	0.157
GGGGGCCACAGCAGAAGCGAUCACGUCGCGGCCCCUGUCAGAUUCUGGUGAGUCUGCGAAUUCUGCUGU [U20A A52G]	0.117
GGGGGCCACAGCAGAAGCGAUCACGUCGCGGCCCCUGUCAGAUUCUGGUGACUCUGCGAAUUCUGCUGU [U20A A52C]	0.0922
GGGGGCCACAGCAGAAGCGAUCACGUCGCGGCCCCUGUCAGAUUCUGGUGAUUCUGCGAAUUCUGCUGU [U20A A52U]	0.143
GGGGGCCACAGCAGAAGCGAUCACGUCGCGGCCUCUGUCAGAUUCUGGUGAAUCUGCGAAUUCUGCUGU [U20A C34U]	0.0989
GGGGGCCACAGCAGAAGCGAUCACGUCGCGGCCACUGUCAGAUUCUGGUGAAUCUGCGAAUUCUGCUGU [U20A C34A]	0.196
GGGGGCCACAGCAGAAGCGAUCACGUCGCGGCCGCUGUCAGAUUCUGGUGAAUCUGCGAAUUCUGCUGU [U20A C34G]	0.196
GGGGGCCACAGCAGAAGCGAUCACGUCGCGGCCCCUGUCAGAUUCUGGUGAAUCUGCGAGUUCUGCUGU [U20A A60G]	0.146
GGGGGCCACAGCAGAAGCGAUCACGUCGCGGCCCCUGUCAGAUUCUGGUGAAUCUGCGACUUCUGCUGU [U20A A60C]	0.114
